Columns and labels:
[1] = biological target: minicollagen peptide H-Gly-Pro-Arg-Gly-(Pro-Hyp-Gly)12-NH2; experiment: SPR; […] (BIACORE); […]; 10 mM sodium HEPES pH 7.4, 150 mM NaCl, 1 mM CaCl2, 0.005% Tween-20; 20 ul/min; 25 C; […]
[2] = biological target: minicollagen peptide H-Gly-Pro-Arg-Gly-(Pro-Hyp-Gly)12-NH2; experiment: SPR; minicollagen peptide amine-coupled on a CM5 chip (BIACORE); collagen anchors as analyte, eight concentrations 100 nM-300 uM; 10 mM sodium HEPES pH 7.4, 150 mM NaCl, 1 mM CaCl2, 0.005% Tween-20; 20 ul/min; 25 C; equilibrium responses fitted; apparent KD

## CBD (s3) of Clostridium histolyticum class II collagenase ColH (domain or fragment)
[1]
  Kd: 752 µM

## CBD (s3b) of Clostridium histolyticum class I collagenase ColG (domain or fragment)
[2]
  Kd: 45.4 µM

## CBD-CBD (s3a-s3b) of Clostridium histolyticum class I collagenase ColG (domain or fragment)
[2]
  Kd: 44.6 µM

## PKD-CBD (s2b-s3) of Clostridium histolyticum class II collagenase ColH (domain or fragment)
[1]
  Kd: 445 µM
